Reference: doi:10.1101/2020.09.30.318261 (bioRxiv, 2020)

Biological target: SARS-CoV prefusion stabilised spike ectodomain trimer (SARS-CoV Urbani, stabilised)
Assay: cryo-EM structure

B1: 47D11 Fab fragment (Fab, V domains shown)
VH: QVQLQESGPGLVKPSETLSLTCSVSGGSISSHYWSWIRQPPGKGLEWIGYIYYSGSTNHNPSLKSRVTISVDTSKNQFSLKLSSVTAADTAVYYCARGVLLWFGEPIFEIWGQGTMVTVSS
VL: EIVMTQSPATLSVSPGERATLSCRASQSVSSSLAWYQQKPGQAPRLLIYGASTRAPGIPARFSGSGSGTEFTLTISSLQSEDFAVYYCQQYNNWPLTFGGGTKVEI
- stoichiometry N: 3 Fab per spike trimer
